Results reported in patent US20250255816A1, “POLYSULFIDE MICROPARTICLES AND USES THEREOF” (Vanderbilt University, priority 2022, published 2025).

Legend:
[1] = Retinal EPO levels by ELISA in mouse microbead occlusion model (MOM) of glaucoma; design: species or system C57/B16 mice; conditions: intravitreal injection, 6 weeks post-MP injection, ELISA of retinal tissue ex vivo
Protocol: (§1) Poly(propylene sulfide-co-ethylene sulfide) (PPSES) was synthesized using ring opening polymerization with an equimolar feed of each monomer. EPO-loaded MPs were formulated by first producing EPO-loaded dextran nanoparticles and loading these into PPSES MPs. The S/O/W technique was used to load EPO. To establish the microbead occlusion model (MOM, FIG. 10) of glaucoma, polystyrene beads were injected into the anterior chamber of C57/B16 mice. Saline-injected mice served as healthy controls. After 1 week, phosphate buffered saline (PBS)-free EPO, blank MPs, or EPO-loaded MPs were injected intravitreally. At 6 weeks post-MP injection, electroretinograms (ERGs) and visual evoked potential (VEP) tests were performed intravitally. Retinal tissue was evaluated ex vivo for EPO and ROS levels using ELISA and Amplex Red dye, respectively.

[2] = test system: retinal reactive oxygen species (ROS); test: Retinal ROS levels by Amplex Red dye in mouse MOM model of glaucoma; design: species or system C57/B16 mice; conditions: intravitreal injection, 6 weeks post-MP injection, ex vivo
Protocol: as §1

[3] = free protein, intravitreal; cited from earlier work

Erythropoietin [EPO]
retinal EPO levels (sustained EPO release) [1]: not different from PBS animals
retinal ROS levels [2]: Both groups outperformed free EPO
half-life intravitreally [3]: ~72 h
